The stoichiometry N is a count of units in the complex or per binding partner.

This is an account of results in article PMC5723419.

The experiment addresses Aminopeptidase P from Pseudomonas aeruginosa (Pa-PepP) (Pseudomonas aeruginosa PA14). The experiment can be described thus: crystal structure.

In turn, “Aminopeptidase P from Pseudomonas aeruginosa (Pa-PepP) (enzyme)” had a stoichiometry N of 4.
